Substitutions are numbered along the chain they refer to.
Tests used:
[1] = system: T1, HBV 11-12L.1090QE Linker1923(1/2) meganuclease (synthetic (I-CreI derived)); test: cell_activity; settings: off-target, HepG2-sAg, 100 ng mRNA, below LOD; 0.2% in naive PHH at 500 ng
T1 sequence: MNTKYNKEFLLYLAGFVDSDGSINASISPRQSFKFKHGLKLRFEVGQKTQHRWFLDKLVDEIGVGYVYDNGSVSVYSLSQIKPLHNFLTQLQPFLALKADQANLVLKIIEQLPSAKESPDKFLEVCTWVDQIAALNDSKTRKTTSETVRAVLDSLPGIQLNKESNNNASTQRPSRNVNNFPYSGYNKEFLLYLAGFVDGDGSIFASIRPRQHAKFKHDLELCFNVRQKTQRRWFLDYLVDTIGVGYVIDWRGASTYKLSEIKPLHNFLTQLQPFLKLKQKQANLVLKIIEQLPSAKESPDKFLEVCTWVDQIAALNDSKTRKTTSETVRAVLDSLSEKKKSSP

[2] = system: T2, HBV 11-12L.1090QQ Linker1 meganuclease (synthetic (I-CreI derived, Chlamydomonas reinhardtii)); test: cell_activity; settings: off-target, HepG2-sAg, 100 ng mRNA; on-target about 60%
T2 sequence: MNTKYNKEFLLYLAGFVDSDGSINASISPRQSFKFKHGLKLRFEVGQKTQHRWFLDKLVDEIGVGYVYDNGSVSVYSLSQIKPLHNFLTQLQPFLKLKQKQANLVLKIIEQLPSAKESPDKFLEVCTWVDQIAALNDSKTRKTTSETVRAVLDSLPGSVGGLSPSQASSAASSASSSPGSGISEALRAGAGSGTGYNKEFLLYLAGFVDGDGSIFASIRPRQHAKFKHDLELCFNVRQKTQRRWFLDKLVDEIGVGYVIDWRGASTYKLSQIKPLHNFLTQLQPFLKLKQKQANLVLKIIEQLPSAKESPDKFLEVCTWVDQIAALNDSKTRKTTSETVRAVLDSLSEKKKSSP

[3] = system: T3, HBV 11-12L.1090QQ Linker1923(1/2) meganuclease (synthetic (I-CreI derived)); test: cell_activity; settings: off-target, HepG2-sAg, 100 ng mRNA; on-target about 60%
T3 sequence: T1 sequence with E260Q

[4] = molecular target: T4, HBV 11-12L.1090QQ Linker1923(1/2) meganuclease (synthetic (I-CreI derived)); test: cell_activity; indel formation in HepG2-sAg, day 2; EC90 4.93 ng; settings: tags: SV40 NLS (N- and C-terminal in pRNA8), mRNA-delivered
T4 chain: T1 sequence with E260Q

[5] = molecular target: T5, HBV 11-12L.1090QE Linker1923(1/2) meganuclease (synthetic (I-CreI derived)); test: cell_activity; indel formation in HepG2-sAg, day 2; EC90 23.93 ng; settings: tags: SV40 NLS (N- and C-terminal in pRNA8), mRNA-delivered
T5 chain: T1 sequence

top off-target site Chr17:17242769
activity [1]: < 0.2 % editing
activity [2]: 0.5 % editing
activity [3]: 2 % editing

B1: HBV 11-12 recognition sequence (dsDNA)
DNA 1: TGCCGATCCATACTGCGGAACT
DNA 2: AGTTCCGCAGTATGGATCGGCA
EC50 [4]: 0.26 ng mRNA
EC50 [5]: 2.3 ng mRNA

Source: US20250346877, “[…] MEGANUCLEASES HAVING […] FOR A RECOGNITION SEQUENCE IN THE […] B VIRUS GENOME” (Precision BioSciences, Inc., published 2025)
